Experimental data: the supplement of paper PMC7125110
± gives the standard error. For some assays here: This sample holds only a part of the variants without activity.

B1: glmS ribozyme (parent)
chain: AUAAAAGCGCCAGAACUACAGAAAUGUAGUUGACGAGGAGGAGGUUUAUCGAAUUUUCGGCGGAUGCCUCCAAA

Assays:
Details in all cases: with glucosamine-6-phosphate
glucosamine-6-phosphate [1] = variants of: B1; assay: kcat; higher = faster cleavage; RNA array
Summary of the method: (§1)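 Using a hybridised Cy3 probe at 37 °C, barcoded ribozyme variants transcribed in situ by E. coli RNA polymerase on sequenced MiSeq chips were monitored across tiles imaged over ~14 h. The flow contained glucosamine-6-phosphate from 40 μM to 10 mM in HEPES/KCl/Mg(OAc)2 buffer. Signals were normalised to baseline and to non-cleaving reference variants before per-tile medians were fit to one- or two-exponential decays to yield kobs. Weighted Michaelis–Menten fits across concentrations gave kcat and KM.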

glucosamine-6-phosphate [2] = variants of: B1; assay: KM; higher = weaker cofactor use; RNA array
Summary of the method: as §1

glucosamine-6-phosphate [3] = variants of: B1; assay: self-cleavage kobs at 2500 uM GlcN6P; higher = faster cleavage; RNA array
Summary of the method: as §1

glucosamine-6-phosphate [4] = variants of: B1; assay: self-cleavage kobs at 10000 uM GlcN6P; higher = faster cleavage; RNA array
Summary of the method: as §1

glucosamine-6-phosphate [5] = variants of: B1; assay: self-cleavage kobs at 160 uM GlcN6P; higher = faster cleavage; RNA array
Summary of the method: as §1

glucosamine-6-phosphate [6] = variants of: B1; assay: self-cleavage kobs at 640 uM GlcN6P; higher = faster cleavage; RNA array
Summary of the method: as §1

glucosamine-6-phosphate [7] = variants of: B1; assay: self-cleavage kobs at 40 uM GlcN6P; higher = faster cleavage; RNA array
Summary of the method: as §1

Variant | kcat (glucosamine-6-phosphate [1]) | KM (glucosamine-6-phosphate [2]) | self-cleavage kobs at 2500 uM GlcN6P (glucosamine-6-phosphate [3]) | self-cleavage kobs at 10000 uM GlcN6P (glucosamine-6-phosphate [4]) | self-cleavage kobs at 160 uM GlcN6P (glucosamine-6-phosphate [5]) | self-cleavage kobs at 640 uM GlcN6P (glucosamine-6-phosphate [6]) | self-cleavage kobs at 40 uM GlcN6P (glucosamine-6-phosphate [7])
G7C C50G | 1.12e-05 ± 2.4e-06 s⁻¹ |  |  |  |  |  | 
A12C G43A | 6.99e-05 ± 1.2e-05 s⁻¹ | 1870 ± 800 µM | 3.76e-05 ± 8.6e-06 s⁻¹ | 6.33e-05 ± 1.9e-05 s⁻¹ |  |  | 
G40A C67U | 0.000237 ± 3.9e-05 s⁻¹ | 964 ± 350 µM | 0.000218 ± 2.6e-05 s⁻¹ | 0.000189 ± 2.6e-05 s⁻¹ | 2.41e-05 ± 1.1e-05 s⁻¹ | 9.44e-05 ± 9.9e-06 s⁻¹ | 
C16U A33U C71G | 2.09e-05 ± 7.7e-06 s⁻¹ |  |  |  |  |  | 
C16U G66U | 0.00129 ± 0.00016 s⁻¹ | 1550 ± 340 µM | 0.000956 ± 0.00011 s⁻¹ | 0.00105 ± 0.00011 s⁻¹ | 9.95e-05 ± 2e-05 s⁻¹ | 0.000375 ± 4.5e-05 s⁻¹ | 3.86e-05 ± 7.8e-06 s⁻¹
G13U A42C U69G | 0.00178 ± 0.00081 s⁻¹ |  | 0.000852 ± 0.00026 s⁻¹ | 0.00141 ± 0.00021 s⁻¹ |  | 0.00028 ± 5.9e-05 s⁻¹ | 8.5e-05 ± 2.1e-05 s⁻¹
G44A U47A | 0.000358 ± 9.3e-05 s⁻¹ | 3500 ± 1700 µM | 0.000137 ± 2.1e-05 s⁻¹ | 0.00028 ± 4.7e-05 s⁻¹ |  | 7.28e-05 ± 1.8e-05 s⁻¹ | < 1e-05 s⁻¹
A36G | 2.12e-05 ± 2.6e-06 s⁻¹ |  | 1.72e-05 ± 3e-06 s⁻¹ | 1.89e-05 ± 1.4e-06 s⁻¹ |  |  | 
A6C | 0.000141 ± 4.6e-06 s⁻¹ | 2100 ± 180 µM | 7.95e-05 ± 1.5e-06 s⁻¹ | 0.000115 ± 1.8e-06 s⁻¹ | < 1e-05 s⁻¹ | 3.13e-05 ± 1.1e-06 s⁻¹ | 
C11A U47A | 8.3e-05 ± 1.6e-05 s⁻¹ |  | 5.35e-05 ± 2.1e-05 s⁻¹ | 6.56e-05 ± 1.8e-05 s⁻¹ |  |  | 
U46A C67G | 0.000319 ± 2.1e-05 s⁻¹ | 2290 ± 290 µM | 0.000187 ± 3.5e-05 s⁻¹ | 0.000254 ± 3.3e-05 s⁻¹ |  | 6.75e-05 ± 1.1e-05 s⁻¹ | 
C34U G51A | 5.64e-05 ± 4.4e-06 s⁻¹ | 2710 ± 750 µM |  | 4.45e-05 ± 8.4e-06 s⁻¹ |  |  | 
G13U A15C | 0.000268 ± 2.8e-05 s⁻¹ | 2790 ± 550 µM | 0.000142 ± 1.9e-05 s⁻¹ | 0.000202 ± 2.4e-05 s⁻¹ |  | 4.71e-05 ± 7.8e-06 s⁻¹ | 
G32A U46C | 0.000236 ± 2.1e-05 s⁻¹ | 1770 ± 290 µM | 0.000126 ± 2.3e-05 s⁻¹ | 0.000209 ± 3.3e-05 s⁻¹ |  | 6.49e-05 ± 8.9e-06 s⁻¹ | 
A14G G51A | 1.48e-05 ± 1.8e-06 s⁻¹ |  |  |  |  |  | 
A36U C67G | 1.75e-05 ± 5.9e-06 s⁻¹ |  |  |  |  |  | 
G29C C61G | 2.64e-05 ± 1e-05 s⁻¹ |  |  |  |  |  | < 1e-05 s⁻¹
U31G A36C | < 1e-05 s⁻¹ |  |  | < 1e-05 s⁻¹ | < 1e-05 s⁻¹ |  | 
G13U C70U | 0.00213 ± 0.00039 s⁻¹ | 3200 ± 840 µM | 0.000792 ± 0.00018 s⁻¹ | 0.00172 ± 0.00026 s⁻¹ | 0.000126 ± 2.3e-05 s⁻¹ | 0.000329 ± 5.2e-05 s⁻¹ | 2.45e-05 ± 1e-05 s⁻¹
